Numbering of substitutions follows the chain as printed. Blank lines part the entries; values can stand above or below the binder they belong to.
What was measured:
[1] = target: T1, human serum amyloid P component (SAP), purified (Homo sapiens, UniProt P02743 20-223); test: Biacore (BIAcoreX), human SAP covalently immobilised on the chip; mean and SD of 3 replicates
T1 construct: Immobilised directly, amine-coupled, captured on O-phosphoethanolamine or by sheep polyclonal antibody, depending on the assay; also called human SAP; native human SAP

[2] = target: T1, human serum amyloid P component (SAP), …; test: direct ELISA, human SAP coated at 1 µg/mL, detection with HRP rabbit anti-mouse IgG
Description: (§1) 1 μg/mL or 5 μg/mL human SAP was directly immobilised onto an ELISA plate and blocked with 1% BSA/TBS plus 0.05% TWEEN20. Anti-SAP antibodies from purified material were titrated across the plate. Bound antibody was detected by treatment with a horse-radish peroxidase (HRP)-conjugated rabbit-anti-mouse IgG antibody (Dako, P0260). The ELISA was developed using O-phenylenediamine dihydrochloride (OPD) peroxidase substrate (Sigma, P9187).

[3] = target: T1, human serum amyloid P component (SAP), …; test: direct ELISA, human SAP coated at 5 µg/mL, detection with HRP rabbit anti-mouse IgG
Description: as §1

[4] = target: T1, human serum amyloid P component (SAP), …; test: Biacore, human SAP captured on immobilised O-phosphoethanolamine (CM5 chip, calcium), bivalent analyte model
Description: (§2) O-phosphoethanolamine was immobilised on a Biacore CM5 chip by primary amine coupling in accordance with the manufacturer's instructions. Human SAP was then captured on the surface in the presence of calcium chloride, in order to replicate in the Biacore system in vitro, the precise orientation of SAP molecules bound to amyloid fibrils in vivo. Anti SAP antibodies were then passed over this surface at 256, 64, 16, 4, 1 nM and a binding sensorgrams obtained. Analysis was carried out at 25° C. using 4% BSA, 10 mM Tris, 140 mM NaCl, 2 mM CaCl₂, 0.05% surfactant P20, 0.02% Na N₃, pH 8.0 as running buffer. […] Data generated were double referenced with a buffer injection over the human SAP surface and analyzed using the bivalent analyte model in the Biacore T100 evaluation software.

[5] = target: T1, human serum amyloid P component (SAP), …; test: Biacore (BIAcoreX), human SAP covalently immobilised on the chip; mean and SD of 3 replicates; human SAP covalently immobilised on the chip; mean of 3 replicates
[6] = target: T1, human serum amyloid P component (SAP), …; test: Biacore, human SAP captured on immobilised O-phosphoethanolamine (CM5 chip, calcium), bivalent analyte model; kd outside the Biacore measurement range
Description: as §2

[7] = target: T1, human serum amyloid P component (SAP), …; test: competition ELISA, human SAP coated at 5 µg/mL, constant SAP-E chimera (cSAP-E) as competitor, bound chimera detected with goat anti-human kappa light chain peroxidase conjugate
Text: A constant concentration of chimeric anti-SAP mAb was mixed with serial diluted (1:1) amounts of mouse anti-SAP mAbs. Plates were washed and the amount of chimeric antibody bound to the immobilised human SAP was detected using goat anti-human Kappa Light chain peroxidase conjugate (Sigma, A7164). The ELISA was developed using O-phenylenediamine dihydrochloride (OPD) peroxidase substrate (Sigma, P9187).

[8] = target: T2, human SAP N-terminal 1-158-homoserine lactone polypeptide (CNBr cleavage fragment) (Homo sapiens, position 159 converted from methionine to homoserine lactone); test: western blot from SDS-PAGE
T2 construct: Tested in western blot from SDS-PAGE; also called approximately 20 kD fragment
T2 chain: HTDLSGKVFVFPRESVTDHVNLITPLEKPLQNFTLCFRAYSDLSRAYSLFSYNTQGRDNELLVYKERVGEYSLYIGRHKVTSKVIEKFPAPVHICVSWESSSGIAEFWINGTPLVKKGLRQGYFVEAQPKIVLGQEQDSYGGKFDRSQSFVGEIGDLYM

[9] = target: T3, isolated pure human C-reactive protein (CRP) (human, UniProt P02741 19-224); test: western blot from SDS-PAGE
T3 construct: also called human CRP
T3 sequence (looked up): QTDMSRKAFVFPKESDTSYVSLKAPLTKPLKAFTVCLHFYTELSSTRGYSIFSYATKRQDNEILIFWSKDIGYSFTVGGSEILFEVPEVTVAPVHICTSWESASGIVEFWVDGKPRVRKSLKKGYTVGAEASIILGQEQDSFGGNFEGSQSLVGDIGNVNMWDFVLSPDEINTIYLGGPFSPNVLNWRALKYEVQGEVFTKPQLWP

[10] = target: T4, human SAP 1-140 fragment (chymotrypsin digestion in the absence of calcium) (Homo sapiens); test: western blot from SDS-PAGE
T4 construct: Tested in western blot from SDS-PAGE; also called residue 1-140 fragment
T4 chain: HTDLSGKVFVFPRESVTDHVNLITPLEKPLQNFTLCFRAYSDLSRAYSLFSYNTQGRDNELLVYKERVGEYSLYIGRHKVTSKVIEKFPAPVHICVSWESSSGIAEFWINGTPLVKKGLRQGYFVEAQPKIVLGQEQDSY

[11] = target: T1, human serum amyloid P component (SAP), …; test: Biacore, human SAP amine-coupled on C1 chip, culture supernatant, 1 to 1 dissociation model, single curve
Description: Human and cynomologus monkey SAP were immobilised on a Biacore C1 chip by primary amine coupling in accordance with the manufacturer's instructions. […] All runs were double referenced with a buffer injection for purified sample or media for the supernatant samples over the human and cyno SAP surfaces. Analysis was carried out at 25° C. using HBS-EP buffer. […] Data were analysed using the 1 to 1 dissociation model within the Biacore T100 evaluation software.
The values were based on a single curve and used for ranking purposes between the different constructs for binding to human SAP.

[12] = target: T1, human serum amyloid P component (SAP), …; test: ELISA, 1 ug/mL human SAP directly immobilised
Description: as §1, with “1” for “1 μg/mL or 5”, “from the test supernatants or” for “from”, “goat anti-human Kappa Light Chains” for “a horse-radish”, “conjugate (Sigma, A7164).” for “(HRP)-conjugated rabbit-anti-mouse IgG antibody (Dako, P0260).”

[13] = target: T1, human serum amyloid P component (SAP), …; test: Biacore, human SAP amine-coupled on CM3 chip, bivalent analyte model
Description: Human SAP was immobilised on a Biacore CM3 chip by primary amine coupling in accordance with the manufacturer's instructions. […] All runs were double referenced with a buffer injection over the human SAP surface. Analysis was carried out at 25° C. using HBS-EP buffer.

[14] = target: T1, human serum amyloid P component (SAP), …; test: direct ELISA, human SAP coated at 1 µg/mL, detection with goat anti-human kappa light chain peroxidase conjugate
Description: as §1, with “1” for “1 μg/mL or 5”, “from the test supernatants or” for “from”, “goat anti-human Kappa Light Chains” for “a horse-radish”, “conjugate (Sigma, A7164).” for “(HRP)-conjugated rabbit-anti-mouse IgG antibody (Dako, P0260).”

[15] = target: T1, human serum amyloid P component (SAP), …; test: binding ELISA and Biacore off-rate ranking
[16] = target: T1, human serum amyloid P component (SAP), …; test: Biacore kinetics, human SAP captured on immobilised O-phosphoethanolamine; alanine at position 91 of L0, not wild-type H3L0
Description: as §2

Kd [1]: 1 nM
koff [1]: 1.7e-05 s⁻¹
kon [1]: 31800 M⁻¹ s⁻¹
EC50 (read off the curve) [2]: ~0.04 µg/mL
EC50 (read off the curve) [3]: ~0.02 µg/mL
Kd [4]: 0.73 nM
koff [4]: 0.000219 s⁻¹
kon [4]: 300000 M⁻¹ s⁻¹
B1: SAP-K mouse monoclonal anti-human SAP antibody (antibody, mouse IgG2a, V domains shown)
VH: QVQLQQPGAELIKPGASVKLSCKASGYTFTSYWMHWVKQRPGQGLEWIGMIHPNSVNTNYNEKFKSKATLTVDKSSSTAYMQLNSLTSEDSAVYYCARRNDYYWYFDVWGTGTTVTVSS
VL: DIVMTQSQKFMSTSVGDRVSVTCKASQNVNSNVAWYQQKPGQSPKALIYSASYRYSGVPDRFTGSGSGTDFTLTITNVQSEDLAEYFCQQCNNYPFTFGSGTKLEIK
notes: also called Mouse SAP-K; murine SAP-K

kon [5]: 20000 M⁻¹ s⁻¹
Kd [1]: 5 nM
koff [1]: 6e-05 s⁻¹
koff [6]: < 1e-05 s⁻¹
IC50 (read off the curve) [7]: ~2 µg/mL
EC50 (read off the curve) [3]: ~0.04 µg/mL
kon [4]: 31500 M⁻¹ s⁻¹
binding result [8]: binds
binding result [10]: binds
B2: SAP-E mouse monoclonal anti-human SAP antibody (antibody, mouse IgG2a, V domains shown)
VH: QASLQQSGTELVRSGASVKMSCKASGFTFATYNMHWIKQTPGQGLEWIGYIYPGDGNANYNQQFKGKATLTADTSSNTAYMQISSLTSEDSAVYFCARGDFDYDGGYYFDSWGQGTTLTVSS
VL: DIQMTQSPASLSASVGETVTITCRASENIYSYLAWYQQKQGRSPQLLVHNAKTLAEGVPSRVSGSGSGTHFSLKINGLQPEDFGNYYCQHHYGAPLTFGAGTKLELK
notes: also called Mouse SAP-E; murine SAP-E
binding result [9]: no binding (tested: 500 ng and 100 ng loaded)

koff [11]: 0.0171 s⁻¹
fold loss of human SAP binding activity compared to the SAP-K chimera [12]: ~2 fold
Kd [13]: 155 nM
koff [13]: 0.0178 s⁻¹
kon [13]: 115000 M⁻¹ s⁻¹
EC50 (read off the curve) [14]: ~0.1 µg/mL
B3: SAP-K H1L0 humanised antibody (antibody, V domains shown)
VH: QVQLVQSGAEVKKPGSSVKVSCKASGYTFTSYWMHWVRQAPGQGLEWMGMIHPNSVNTNYNEKFKSRVTITADKSTSTAYMELSSLRSEDTAVYYCARRNDYYWYFDVWGQGTLVTVSS
VL: DIQMTQSPSSLSASVGDRVTITCKASQNVNSNVAWYQQKPGKAPKLLIYSASYRYSGVPSRFSGSGSGTDFTLTISSLQPEDFATYYCQQCNNYPFTFGQGTKLEIK

binding result [15]: binds
B4: SAP-K H1 with L0 91A humanised light chain variant (antibody, human IgG1, V domains shown)
VH: B3 VH
VL: B3 VL with C91A
notes: Human IgG1/kappa; also called alanine variant paired with H1

koff [11]: 0.0296 s⁻¹
B5: SAP-K H1L1 humanised antibody (antibody, V domains shown)
VH: B3 VH
VL: B3 VL with L46A

koff [11]: 0.0263 s⁻¹
fold loss of human SAP binding activity compared to the SAP-K chimera [12]: ~2 fold
Kd [13]: 739 nM
koff [13]: 0.0449 s⁻¹
kon [13]: 60800 M⁻¹ s⁻¹
B6: SAP-K H0L0 humanised antibody (antibody, V domains shown)
VH: B3 VH with Y27G, T30S
VL: B3 VL

Kd [16]: 0.436 nM
B7: SAP-K H3 with L0 91A humanised light chain variant (antibody, human IgG1, V domains shown)
VH: B3 VH with M48I, V68A, I70L, A72V
VL: B3 VL with C91A
notes: Human IgG1/kappa; also called variant with alanine at position 91

koff [11]: 0.0321 s⁻¹
B8: SAP-K H2L1 humanised antibody (antibody, V domains shown)
VH: B3 VH with M48I, V68A
VL: B3 VL with L46A

koff [11]: 0.0204 s⁻¹
fold loss of human SAP binding activity compared to the SAP-K chimera [12]: ~2 fold
Kd [13]: 191 nM
koff [13]: 0.022 s⁻¹
kon [13]: 115000 M⁻¹ s⁻¹
B9: SAP-K H2L0 humanised antibody (antibody, V domains shown)
VH: B3 VH with M48I, V68A
VL: B3 VL

koff [11]: 0.0236 s⁻¹
B10: SAP-K H3L1 humanised antibody (antibody, V domains shown)
VH: B3 VH with M48I, V68A, I70L, A72V
VL: B3 VL with L46A
